The values below come from patent publication US20160052997A1.

Positions count from the first letter of the chain named. “And” between values parts separate entries of the source, which are not always exact repeats. Equal values may be shown once. Read-outs that look alike come from different tables or passages of the source.

By Kd is commonly meant a measure of binding affinity in units of concentration. The koff is the rate constant with which the complex falls apart. As usually defined, the kon is the second-order rate constant of association.

Assay [1] concerns the target purified recombinant HA protein of H5N1 (A/Vietnam/1203/04) (Influenza A virus A/Vietnam/1203/04 (H5N1)). In words: SPR, Biacore T200, HA captured via anti-6x his tag antibody, 25 C. A general note: Surface plasmon resonance follows binding to a sensor surface in real time, without labels.
Assay [2] has as its target purified recombinant HA protein of H1N1 (A/Ohio/07/09) (Influenza A virus A/Ohio/07/09 (H1N1)). Described as above.
In assay [3] the target is purified recombinant HA protein of H1N1 (A/Texas/05/09) (Influenza A virus A/Texas/05/09 (H1N1)). Described as above.
The target of assay [4] is purified recombinant HA protein of H1N1 (A/Ohio/07/09) (Influenza A virus A/Ohio/07/09 (H1N1)).
For assay [5], the target named is purified recombinant HA protein of H5N1 (A/Vietnam/1203/04) (Influenza A virus A/Vietnam/1203/04 (H5N1)).
The target of assay [6] is purified recombinant HA protein of H1N1 (A/Texas/05/09) (Influenza A virus A/Texas/05/09 (H1N1)).
Assay [7] has as its target HA of A/Brisbane/10/07 (H3N2) virus (Influenza A virus A/Brisbane/10/07 (H3N2)). In words: cell-based or functional assay.
The target in assay [8] is HA of A/Hong Kong/68 (H3N2) virus (Influenza A virus A/Hong Kong/68 (H3N2)). As to the kind of experiment: cell-based or functional assay.
The target of assay [9] is HA of A/Wisconsin/67/05 (H3N2) virus (Influenza A virus A/Wisconsin/67/05 (H3N2)). In words: cell-based or functional assay.

B1: CT120 (antibody, V domains shown)
VH: QVQLVQSGAEVKMPGSSVKVSCKTSGVFFSSHAISWVRQAPGQGLEWMGGISPMFGTTHYAQKFQGRVTITADQSTTTAYMELTSLTSEDTAVYYCARDGAGSYYPLNWFDPWGQGTLVTVSS
VL: EIVLTQSPATLSLSPGERATLSCRASENIWNNLAWYQQKPGQAPRLLISGASTGATGVPSRFRGSGSRTEFTLTISSLQSEDFAIYFCQQYNSWPRTFGPGTKVEIKR
B1: the Kd is 3.74 nM and 4.2 nM in assay [1]; 1.76 nM and 2.24 nM in assay [2]; 1.97 nM and 1.55 nM in [3]; 2 nM in assay [4]; 3.97 nM in [5]; 1.76 nM in assay [6]. Further, the off-rate (koff) is 3.88 s⁻¹ in assay [1]; 0.000663 s⁻¹ and 0.000789 s⁻¹ in assay [2]; 0.00119 s⁻¹ and 0.00098 s⁻¹ in assay [3]. In addition, the kon is 376000 M⁻¹ s⁻¹ and 352000 M⁻¹ s⁻¹ in assay [2]; 606000 M⁻¹ s⁻¹ and 632000 M⁻¹ s⁻¹ in [3].

B2: CT164 (antibody, V domains shown)
VH: QVQLVQSGVEVKKPGASVKVSCKTSGYPFSTYGVSWVRQAPGQGLEWVGWISGYTGITDYAQKSQGRVTLTTDASTATAFLELRSLRPDDTATYFCARDKVQGRVEAGSGGRHDYWGQGTLVIVSS
VL: EVVLTQSPGTLTLPPGDRATLSCRASHSVGSTYIAWFQQKSGQAPRRLIYGASNRATDIPDRFSGSGSGTDFTLTIRRLEPEDSAVYYCQQFSVSPWTFGQGTRVEIKR
Take B2: the MN test: lowest antibody concentration at which no virus antigen was detected in assay [7] was 0.625 µg/mL; in assay [8] it was 1.25 µg/mL; in assay [9] it was 2.5 µg/mL.

B3: CT166 (antibody, V domains shown)
VH: B2 VH with V9A, P28S, S64F, S75T, A107V
VL: B2 VL with T12A, D17E, V29I, F37Y, T57S
As to B3, the MN test: lowest antibody concentration at which no virus antigen was detected in [7] stood at 1.25 µg/mL; in [8], 2.5 µg/mL; in assay [9], 5 µg/mL.
